Source: patent publication US20240270861A1 (DRAGONFLY THERAPEUTICS, published 2024)
Numbering of substitutions follows the chain as printed. Each block holds one binder with its values, some of them ahead of it.

Tests used:
cynomolgus CD16 = target: T1, cynomolgus CD16 (cynomolgus monkey, UniProt Q8SPW2 17-208); experiment: SPR, kinetics fit
T1 construct: also called cyno CD16; FcγRIII (cynomolgus)

human CD16a V158 = target: T2, human CD16a V158 (human, UniProt P08637 17-208); experiment: SPR, qualitative (Table 40 not given)
T2 construct: Recombinant receptor in SPR; in the cytotoxicity assays expressed on KHYG-1-CD16aV cells; also called hCD16aV; hCD16a V158
T2 sequence (P08637 17-208 F176V limits assumed): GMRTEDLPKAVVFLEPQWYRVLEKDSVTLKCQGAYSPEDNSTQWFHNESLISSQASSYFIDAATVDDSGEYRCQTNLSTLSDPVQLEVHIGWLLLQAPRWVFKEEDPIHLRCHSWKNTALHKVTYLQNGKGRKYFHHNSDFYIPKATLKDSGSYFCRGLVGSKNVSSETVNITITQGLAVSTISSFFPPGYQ

[1] = target: T3, hBAFF-R-hFc-His fusion protein (human, UniProt Q96RJ3 1-78, biotinylated where used as yeast display probe); experiment: yeast display flow cytometry after challenge: 100 pM hBAFFR-Fc biotin for 1hr at RT, then 1 mM nonbiotinylated hBAFFR-Fc (as printed on the sheet)
T3 construct: also called hBAFFR-Fc; biotinylated hBAFF-R-hFc-His

T1 sequence (Q8SPW2 17-208 limits assumed): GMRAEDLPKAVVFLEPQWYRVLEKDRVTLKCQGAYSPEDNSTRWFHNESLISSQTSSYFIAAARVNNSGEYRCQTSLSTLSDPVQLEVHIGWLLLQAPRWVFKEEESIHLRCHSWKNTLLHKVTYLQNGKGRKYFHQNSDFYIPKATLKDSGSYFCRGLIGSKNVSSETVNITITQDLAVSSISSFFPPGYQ

B1: AB1424/AB1612 F3′ TriNKET (bispecific antibody, human IgG1, kappa)
chain: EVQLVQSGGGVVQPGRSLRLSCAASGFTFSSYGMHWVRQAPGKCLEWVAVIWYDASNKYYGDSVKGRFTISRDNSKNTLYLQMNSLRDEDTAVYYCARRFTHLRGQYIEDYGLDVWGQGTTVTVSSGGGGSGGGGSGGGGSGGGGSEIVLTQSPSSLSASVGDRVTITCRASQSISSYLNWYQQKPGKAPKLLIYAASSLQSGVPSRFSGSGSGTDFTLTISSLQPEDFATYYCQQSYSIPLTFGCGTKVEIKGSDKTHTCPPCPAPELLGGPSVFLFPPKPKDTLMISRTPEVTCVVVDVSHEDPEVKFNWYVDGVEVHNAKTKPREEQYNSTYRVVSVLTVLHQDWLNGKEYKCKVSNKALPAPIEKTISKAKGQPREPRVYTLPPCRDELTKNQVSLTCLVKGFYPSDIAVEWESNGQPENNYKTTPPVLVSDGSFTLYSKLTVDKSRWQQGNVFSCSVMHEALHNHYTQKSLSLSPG
heavy: EVQLVESGGGLVKPGGSLRLSCAASGFTFSSYSMNWVRQAPGKGLEWVSSISSSSSYIYYADSVKGRFTISRDNAKNSLYLQMNSLRAEDTAVYYCARGAPIGAAAGWFDPWGQGTLVTVSSASTKGPSVFPLAPSSKSTSGGTAALGCLVKDYFPEPVTVSWNSGALTSGVHTFPAVLQSSGLYSLSSVVTVPSSSLGTQTYICNVNHKPSNTKVDKKVEPKSCDKTHTCPPCPAPELLGGPSVFLFPPKPKDTLMISRTPEVTCVVVDVSHEDPEVKFNWYVDGVEVHNAKTKPREEQYNSTYRVVSVLTVLHQDWLNGKEYKCKVSNKALPAPIEKTISKAKGQPREPQVCTLPPSRDELTENQVSLTCLVKGFYPSDIAVEWESNGQPENNYKTTPPVLDSDGSFFLYSWLTVDKSRWQQGNVFSCSVMHEALHNHYTQKSLSLSPG
light: DIQMTQSPSSVSASVGDRVTITCRASQGISSWLAWYQQKPGKAPKLLIYAASSLQSGVPSRFSGSGSGTDFTLTISSLQPEDFATYYCQQGVSFPRTFGGGTKVEIKRTVAAPSVFIFPPSDEQLKSGTASVVCLLNNFYPREAKVQWKVDNALQSGNSQESVTEQDSKDSTYSLSSTLTLSKADYEKHKVYACEVTHQGLSSPVTKSFNRGEC
notes: Chain S anti-BAFF-R scFv-CH2-CH3, Chain H and Chain L anti-NKG2D A49MI Fab; also called AB1612-002
Kd (cynomolgus CD16): 232 nM

B3: AB1080scFv displayed on yeast (scFv, V domains shown)
VH: EVQLVQSGGGVVQPGRSLRLSCAASGFTFSSYGMHWVRQAPGKCLEWVAVIWYDASNKYYGDSVKGRFTISRDNSKNTLYLQMNSLRDEDTAVYYCARRFTHLRGWYIEDYGLDVWGQGTTVTVSS
VL: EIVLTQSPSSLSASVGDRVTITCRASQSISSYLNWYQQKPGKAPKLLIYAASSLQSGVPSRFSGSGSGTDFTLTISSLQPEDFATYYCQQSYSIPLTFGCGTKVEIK
notes: scFv on yeast
Iana (drawn gate) [1]: 23.4 % (unit not printed)

B4: AB1081scFv displayed on yeast (scFv, V domains shown)
VH: B3 VH with T28A, A55E, K76R, H102N, Y107I
VL: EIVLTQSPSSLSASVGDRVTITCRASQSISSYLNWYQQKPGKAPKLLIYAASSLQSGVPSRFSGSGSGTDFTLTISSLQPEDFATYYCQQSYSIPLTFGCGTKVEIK
notes: scFv on yeast
Iana (drawn gate) [1]: 27.2 % (unit not printed)

Second part, the binder after the results:

binding result (human CD16a V158): no binding
B2: AB1424/AB1612 F3′ TriNKET FcγRsi (bispecific antibody)
chain: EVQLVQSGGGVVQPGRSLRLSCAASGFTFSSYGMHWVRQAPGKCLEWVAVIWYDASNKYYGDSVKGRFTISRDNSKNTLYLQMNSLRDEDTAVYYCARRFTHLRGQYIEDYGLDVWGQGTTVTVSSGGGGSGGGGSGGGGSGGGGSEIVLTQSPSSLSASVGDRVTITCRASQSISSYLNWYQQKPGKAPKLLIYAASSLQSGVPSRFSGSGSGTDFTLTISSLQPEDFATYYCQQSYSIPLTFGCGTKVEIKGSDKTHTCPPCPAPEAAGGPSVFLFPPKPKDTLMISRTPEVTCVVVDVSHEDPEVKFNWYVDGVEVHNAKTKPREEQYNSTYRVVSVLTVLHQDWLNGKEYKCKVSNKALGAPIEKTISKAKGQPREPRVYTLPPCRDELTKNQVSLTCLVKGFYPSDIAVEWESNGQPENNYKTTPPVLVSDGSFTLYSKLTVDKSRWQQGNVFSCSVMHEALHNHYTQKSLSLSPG
heavy: B1 heavy with L239A, L240A, P334G
light: B1 light
notes: Positions are EU numbers, not positions on the entries; also called AB1424/AB1612 F3′ TriNKET-Fc-si; AB1424/AB1612 F3′ TriNKET-Fc silenced

Iana (drawn gate) [1]: 7.4 % (unit not printed)
B5: AB1084scFv displayed on yeast (scFv, V domains shown)
VH: B3 VH with S31M, H102R
VL: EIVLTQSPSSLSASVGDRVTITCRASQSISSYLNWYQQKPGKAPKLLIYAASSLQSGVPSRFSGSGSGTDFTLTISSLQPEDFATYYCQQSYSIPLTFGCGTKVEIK
notes: scFv on yeast
